Article PMC4788435 (2016)

B1: human NEK8-GFP wild type [human] / Flag-ANKS6 [not stated] (parent complex)
chain 1: MEKYERIRVVGRGAFGIVHLCLRKADQKLVIIKQIPVEQMTKEERQAAQNECQVLKLLNHPNVIEYYENFLEDKALMIAMEYAPGGTLAEFIQKRCNSLLEEETILHFFVQILLALHHVHTHLILHRDLKTQNILLDKHRMVVKIGDFGISKILSSKSKAYTVVGTPCYISPELCEGKPYNQKSDIWALGCVLYELASLKRAFEAANLPALVLKIMSGTFAPISDRYSPELRQLVLSLLSLEPAQRPPLSHIMAQPLCIRALLNLHTDVGSVRMRRAEKSVAPSNTGSRTTSVRCRGIPRGPVRPAIPPPLSSVYAWGGGLGTPLRLPMLNTEVVQVAAGRTQKAGVTRSGRLILWEAPPLGAGGGSLLPGAVEQPQPQFISRFLEGQSGVTIKHVACGDFFTACLTDRGIIMTFGSGSNGCLGHGSLTDISQPTIVEALLGYEMVQVACGASHVLALSTERELFAWGRGDSGRLGLGTRESHSCPQQVPMPPGQEAQRVVCGIDSSMILTVPGQALACGSNRFNKLGLDHLSLGEEPVPHQQVEEALSFTLLGSAPLDQEPLLSIDLGTAHSAAVTASGDCYTFGSNQHGQLGTNTRRGSRAPCKVQGLEGIKMAMVACGDAFTVAIGAESEVYSWGKGARGRLGRRDEDAGLPRPVQLDETHPYTVTSVSCCHGNTLLAVRSVTDEPVPP
chain 2: MGEGGLPPAFQLLLRACDQGDTETARRLLEPGAAEPAERGAEPEAGAEPAGAEVAGPGAAAAGAVGAPVPVDCSDEAGNTALQFAAAGGHEPLVRFLLRRGASVNSRNHYGWSALMQAARFGHVSVAHLLLDHGADVNAQNRLGASVLTVASRGGHLGVVKLLLEAGAFVDHHHPSGEQLGLGGSRDEPLDITALMAAIQHGHEAVVRLLMEWGADPNHAARTVGWSPLMLAALTGRLGVAQQLVEKGANPDHLSVLEKTAFEVALDCKHRDLVDYLDPLTTVRPKTDEEKRRPDIFHALKMGNFQLVKEIADEDPSHVNLVNGDGATPLMLAAVTGQLALVQLLVERHADVDKQDSVHGWTALMQATYHGNKEIVKYLLNQGADVTLRAKNGYTAFDLVMLLNDPDTELVRLLASVCMQVNKDKGRPSHQPPLPHSKVRQPWSIPVLPDDKGGLKSWWNRMSNRFRKLKLMQTLPRGLSSNQPLPFSDEPEPALDSTMRAAPQDKTSRSALPDAAPVTKDNGPGSTRGEKEDTLLTTMLRNGAPLTRLPSDKLKAVIPPFLPPSSFELWSSDRSRTRHNGKADPMKTALPQRASRGHPVGGGGTDTTPVRPVKFPSLPRSPASSANSGNFNHSPHSSGGSSGVGVSRHGGELLNRSGGSIDNVLSQIAAQRKKAAGLLEQKPSHRSSPVGPAPGSSPSELPASPAGGSAPVGKKLETSKRPPSGTSTTSKSTSPTLTPSPSPKGHTAESSVSSSSSHRQSKSSGGSSSGTITDEDELTGILKKLSLEKYQPIFEEQEVDMEAFLTLTDGDLKELGIKTDGSRQQILAAISELNAGKGRERQILQETIHNFHSSFESSASNTRAPGNSPCA

Variants of: B1
Test: co-immunoprecipitation (anti-GFP IP, western blot band quantification); HEK293T cell lysates co-expressing NEK8-GFP and Flag-ANKS6; parent: 1; read off a plot

Compared with chain 1 G580S, chain 1 H425Y is higher in ratio to parent: about 0.97 for the first, about 1 for the second.

Going from chain 1 R602W to chain 1 T87A, the ratio to parent falls from about 0.95 to about 0.42.
